Laboratory results from article PMC3342691 (Nature structural & molecular biology, 2011).

Molecular target: Xenopus tropicalis tubulin tyrosine ligase (residues 2–377) (Xenopus tropicalis)
Assay: AUC

Kd: ~144 µM
Binder: VDSVEGEGEEEGEE [14-residue α–tubulin C-terminal peptide (VDSVEGEGEEEGEE)]
